Columns and labels:
[1] = target: monobiotinylated Fab' antibody fragment; assay: BIAcore SPR, mutein immobilized on CM5 chip, Fab' at 12.5-400 nmol/l, 25 C
[2] = target: monobiotinylated Fab' antibody fragment; assay: BIAcore SPR, mutein-thermo-BSA conjugate immobilized on CM5 chip, Fab' at 12.5-400 nmol/l, 25 C
[3] = target: monobiotinylated Fab' antibody fragment; assay: BIAcore SPR, streptavidin immobilized on CM5 chip, Fab' at 12.5-400 nmol/l, 25 C
[4] = target: monobiotinylated Fab' antibody fragment; assay: BIAcore SPR, mutein immobilized on CM5 chip, Fab' at 12.5-400 nmol/l, 25 C; first of 2 product lots
[5] = target: monobiotinylated Fab' antibody fragment; assay: BIAcore SPR, mutein immobilized on CM5 chip, Fab' at 12.5-400 nmol/l, 25 C; second of 2 product lots

core streptavidin (wild type streptavidin), sequence (chain): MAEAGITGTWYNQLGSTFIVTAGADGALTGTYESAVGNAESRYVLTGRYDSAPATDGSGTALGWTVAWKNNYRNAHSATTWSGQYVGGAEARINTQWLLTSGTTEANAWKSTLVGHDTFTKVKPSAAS
SA-Ser27Arg/Ser45Arg TBSA conjugate, sequence (P02769 25-607, change not shown): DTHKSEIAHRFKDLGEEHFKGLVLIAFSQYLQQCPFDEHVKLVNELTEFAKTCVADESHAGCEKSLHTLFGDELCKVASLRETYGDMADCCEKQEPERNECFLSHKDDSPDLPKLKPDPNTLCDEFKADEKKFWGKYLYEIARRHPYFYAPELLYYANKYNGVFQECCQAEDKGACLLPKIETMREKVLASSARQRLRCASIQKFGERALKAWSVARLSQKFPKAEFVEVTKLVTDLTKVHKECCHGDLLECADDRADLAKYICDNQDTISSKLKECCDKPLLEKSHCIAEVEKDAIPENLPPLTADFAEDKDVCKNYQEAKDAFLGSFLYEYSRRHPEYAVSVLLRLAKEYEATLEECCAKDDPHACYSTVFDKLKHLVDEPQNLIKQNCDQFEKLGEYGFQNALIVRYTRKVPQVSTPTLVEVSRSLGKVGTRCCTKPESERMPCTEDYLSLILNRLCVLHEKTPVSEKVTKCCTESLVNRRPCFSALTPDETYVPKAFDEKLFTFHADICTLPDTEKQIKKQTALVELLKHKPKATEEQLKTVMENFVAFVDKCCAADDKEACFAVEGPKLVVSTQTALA

Row | Substance | Ka [1] | koff [1] | kon [1] | t/2 diss [1] | further results
1 | SA-Leu25Trp/Ser45Tyr/Leu110Trp | 4.6e+07 M⁻¹ | 0.0013 s⁻¹ | 54000 M⁻¹ s⁻¹ | 8.7 min | 
2 | SA-Ser45Tyr/Leu110Trp | 2.7e+08 M⁻¹ | 0.00054 s⁻¹ | 130000 M⁻¹ s⁻¹ | 22.6 min | 
3 | SA-Ser27Arg/Ser45Arg/Leu110Trp | 7.7e+06 M⁻¹ | 0.0059 s⁻¹ | 45000 M⁻¹ s⁻¹ | 2 min | 
4 | SA-Ser27Arg/Ser45Arg TBSA conjugate (from UniProt P02769 25-607) |  |  |  |  | Ka [2]: 3.3e+07 M⁻¹; koff [2]: 0.003 s⁻¹; kon [2]: 100000 M⁻¹ s⁻¹; t/2 diss [2]: 3.9 min
5 | SA-Leu25Trp/Ser45Arg | 3.6e+08 M⁻¹ | 0.00022 s⁻¹ | 79000 M⁻¹ s⁻¹ | 51.8 min | 
6 | core streptavidin (wild type streptavidin) |  |  |  |  | Ka [3]: > 1e+10 M⁻¹; koff [3]: < 1e-05 s⁻¹; kon [3]: 220000 M⁻¹ s⁻¹; t/2 diss [3]: > 20 h
7 | SA-Ser27Arg/Ser45Arg/Trp120Ala | 2e+07 M⁻¹ | 0.0052 s⁻¹ | 100000 M⁻¹ s⁻¹ | 2.2 min | 
8 | SA-Trp120Ala | 2.9e+08 M⁻¹ | 0.00023 s⁻¹ | 67000 M⁻¹ s⁻¹ | 49.4 min | 
9 | SA-Leu25Trp/Ser45Trp/Leu110Trp | 7e+07 M⁻¹ | 0.00087 s⁻¹ | 49000 M⁻¹ s⁻¹ | 13.4 min | 
10 | SA-Ser45Trp/Leu110Trp | 6.1e+08 M⁻¹ | 0.00033 s⁻¹ | 140000 M⁻¹ s⁻¹ | 40.8 min | 
11 | SA-Ser27Arg/Ser45Arg |  |  |  |  | Ka [4]: 4.2e+07 M⁻¹; kon [4]: 130000 M⁻¹ s⁻¹; t/2 diss [4]: 3.7 min; Ka [5]: 2.1e+07 M⁻¹; koff [5]: 0.0041 s⁻¹; kon [5]: 85000 M⁻¹ s⁻¹; t/2 diss [5]: 2.8 min

Reference: patent US6391571
